“Also recorded” adds a separate entry of the source.
Assays:
[1] = system: growth-arrested HepG2 cells; experiment: Arrayed DTS screen in growth-arrested HepG2 cells; GFP intensity by live-cell imaging; assay type: cell-based; settings: 24 h post-transfection
From the text: DNA construct design. Each DTS was constructed in pentameric repeat using a 15 bp spacer between each TFBS. The DTS was appended just 5′ to the promoter, effectively in a putative enhancer region. Various promoters were employed in these constructs, including CBh (a variant of the CAG promoter) and TTR. Several reporter genes were employed in these constructs, including enhanced Green Fluorescent Protein (eGFP). The polyadenylation (polyA) signal is a BGH-PolyA sequence. For pooled screening, unique molecular identifiers (UMIs; also known as barcodes) were used to distinguish between DNA constructs in a pool, and the UMIs were appended to the 3′UTR immediately downstream of the stop codon of eGFP, just preceding the BGH-PolyA sequence.
Cell culture. HepG2 cells were plated into a 384-well plate and grown for 48 hours to achieve confluency. Cell media was removed and replaced with culture media supplemented with Aphidicolin (1 uM) using EL406 automated plate washer and dispenser, then cells were transfected with DTS containing 17.5 ng plasmids using Lipofectamine 3000 without supplement. Expression of GFP was monitored using a Biotek Cytation 5 cell imaging reader over 24 hours to evaluate DTS activity. Total GFP per well was calculated and averaged over 4 well replicates.
pDNAs containing various DTSs (Table 12) were transfected individually into growth-arrested HepG2 cells. Cell growth was inhibited to prevent dissolution of the nuclear envelope. GFP expression was quantified over a period of 24 h post-transfection by measuring GFP intensity using quantitative live-cell imaging. Statistical analysis and hierarchical clustering methods were used to easily differentiate strong DTSs from weak DTSs in a heatmap (FIG. 5A). […] DTS.203: CREB1, PPARA, ONECUT1, HNF4A, PPARA. DTS.233: HNF1A, NR113, PPARA, HNF1A, PPARA. DTS.276: FOXA1, HNF4A, HNF1A, HNF4A, HNF1A.
For the arrayed screen, pDNAs containing various DTSs were transfected individually into growth-arrested HepG2 cells. For the pooled screen, pDNAs containing various DTSs were pooled together and transfected as a pool into growth-arrested HepG2 cells. Cell growth was inhibited to prevent dissolution of the nuclear envelope, which improves the accuracy of measuring DTS activity related to nuclear translocation. For the arrayed screen, GFP protein expression was quantified 24 h post-transfection by measuring GFP intensity using quantitative live-cell imaging. For the pooled screen, mRNA abundance for each DTS variant was determined using RNA-seq by deconvoluting the read counts for each UMI. A strong correlation between protein expression in the arrayed screen and mRNA expression in the pooled screen was observed (FIG. 6). […] Pooled screening can thus be used to quickly and reliably identify strong DTSs.

[2] = system: growth-arrested HepG2 cells; experiment: Pooled DTS screen in growth-arrested HepG2 cells; mRNA abundance by RNA-seq of UMIs; assay type: cell-based
From the text: Library cloning. Pooled DTS libraries were designed as described above. To ensure the highest quality library production of oligos for cloning, oligo lengths were standardized to 300 bp. To accommodate this standardized length the core sequence of each DTS was embedded center-justified in a neutral fragment of random DNA sequence. The flanks of each oligo contained unique golden gate restriction enzyme digestion sites (Bsal) for cloning of double stranded DNA into screening vectors. […] The proper UMI/DTS barcode correlation (termed here the “library registry”) was determined via excision of the hTTR/eGFP fragments, re-ligation of the vector, PCR amplification of the corresponding proximal DTS and UMI regions, and sequencing on an Illumina Miseq (2×150 bp reads). […]
Quantification of mRNA abundance from pooled DTS screens. […] The PCR amplified cDNA was then library prepped (NEBNext library prep for Illumina) and sequenced on an Illumina Miseq (2×150 bp reads). Counts for each UMI were translated into the corresponding DTS using the UMI/Barcode registry and changes in abundance of each DTS were statistically analyzed using a custom R script. The log 2 fold change is calculated by comparing the RNA level in the pool vs. its expected abundance, which is derived from the abundance in the corresponding input DNA pool. […]

| Molecule | GFP intensity / gene expression in arrayed screen compared to Spacer negative control [1] | mRNA abundance in pooled screen relative to Spacer negative control [2] |
| --- | --- | --- |
| DTS.203: combinatorial DTS: CREB1, PPARA, ONECUT1, HNF4A, PPARA binding sites (nucleic acid) DNA: CTGACGTCAGAGATTACTACTGATACAAAACTAGGTCAAAGGTCAAGATTACTACTGATAGTCTGCTAAGTCAATAATCAGAATAGATTACTACTGATACGCCCCAGCACACATGATCAGAAGATTACTACTGATAAGGTCAAAGGTCA | performed equivalently or better than NFKB | – |
| DTS.233: combinatorial DTS: HNF1A, NR1I3, PPARA, HNF1A, PPARA binding sites (nucleic acid) DNA: GGTTAATAATTAACAGATTACTACTGATACCTCTTCTCTGTGGGTGACCAGCGTCCTAAGATTACTACTGATAAACTAGGTCAAAGGTCAAGATTACTACTGATAAGTATGGTTAATGATCTACAGAGATTACTACTGATACAAAACTAGGTCAAAGGTCA | performed equivalently or better than NFKB; also recorded: robust increases | robust increases |
| DTS.276: combinatorial DTS: FOXA1, HNF4A, HNF1A, HNF4A, HNF1A binding sites (nucleic acid) DNA: TGTTTACTTTAGATTACTACTGATATCGAGCGCAGGTCAAAGGTCACCTGCAGATTACTACTGATAGGTTAATAATTAACAGATTACTACTGATATCGAGCGCTGGGCAAAGGTCACCTGCAGATTACTACTGATAAGTATGGTTAATGATCTACAG | performed equivalently or better than NFKB | – |

From patent publication US20260234655A1, “Nuclear Targeted DNA Delivery and Compositions for Use in Practicing the Same” (Seawolf Therapeutics, Inc., priority 2022, published 2026)
